Reference: patent US20230405140A1, “ANTI-CD56 ANTIBODY-DRUG CONJUGATES AND THEIR USE IN THERAPY” (MCSAF INSIDE ONCOLOGY, priority 2020, published 2023)

Columns and labels:
[1] = system: small cell lung carcinoma; conditions: phase II, in combination with chemotherapy (cisplatin-etoposide); in words; cited from earlier work
[2] = system: neutrophils; assay: Killing effect on neutrophils (Annexin V / 7-AAD flow cytometry); format: cell-based, human; conditions: after 4 h of incubation; CD56 negative cells; at high concentration
Text: The neutrophils were isolated directly from whole blood of healthy adult volunteers at the Etablissement Français du Sang, according to institutional research protection guidelines agreement N° CA-REC-2019-188, Centre Val de Loire, France, by negative selection, using the kit (MACSxpress® Whole Blood Neutrophil Isolation Kit, MiltenyBiotech™). The neutrophils were used directly following their isolation and then resuspended in HBSS buffer (1X) (Gibco 15266355), at 1×10^6 cells/mL.
(§1) 5% of CO2. […] All products were tested after 4 days treatment on NK cells and 4 h on monocytes and neutrophils.

[3] = system: CD56− cells (CRISPR-MCC cell lines WaGa and MKL-1); assay: XTT assay, summary over CD56- CRISPR-MCC cell lines; format: cell-based; conditions: at high doses; in words
Method: (§2) To evaluate cell viability and cellular metabolic activity, XTT assays were performed according to standard protocols. WaGa, PeTa, H69, H209, H660 cell lines were plated in 3 replicates in a 96-well plate with 5.10^4 cells/well. […] Untreated cells were used as viability reference. Cells treated with 1% Triton X100 were used as cell death positive control. After 4 days, 25 μL XTT reagent at 1 mg/mL (Alfa Aesar, thermo Fisher) with N-methyl dibenzopyrazine methyl sulfate (PMS) activator (25 μM) was added per well and absorbance was measured at 450 nm after 4 h incubation. Absorbance at 620 nm was used as a reference. Three independent experiments have been performed.

[4] = system: primary NK cells; assay: Killing effect on primary NK cells (Annexin V / 7-AAD flow cytometry); format: cell-based, human; conditions: for Killing effect on primary NK cells (ADCC): after 4 h of incubation, in words; for Killing effect on primary NK cells: after 4 days of incubation
Method: (§3) Primary natural killer cells (NK) and monocytes were obtained from blood of healthy adult volunteers at the Etablissement Français du Sang, according to institutional research protection guidelines agreement N° CA-REC-2019-188, Centre Val de Loire, France. Ficoll density centrifugation step (Eurobio) was performed to isolate peripheral blood mononuclear cells (PBMC).
NK cells were isolated from PBMC by negative selection (NK cell isolation kit human, Miltenyi Biotec) with purity higher than 95%. NK cells were cultured for up to 36 h in RPMI 1640 supplemented with 10% FCS, 1% penicillin and streptomycin, 1% L-glutamine and 100 UI/mL IL-2 at 37° C., 5% CO2 at 1.10^6 cells/mL.

[5] = system: WaGa CRISPR CD56; assay: XTT assay, ADC-mediated cytotoxicity; format: cell-based; conditions: 4 days, CD56− cells, read-out: WaGa CRISPR CD56 n = 3 IC50
Method: as §2

[6] = system: H209; assay: XTT assay, ADC-mediated cytotoxicity; format: cell-based; conditions: 4 days, read-out: H209 n = 3 IC50
Method: as §2

[7] = system: H69; assay: XTT assay, ADC-mediated cytotoxicity; format: cell-based; conditions: 4 days, read-out: H69 n = 3 IC50
Method: as §2

[8] = system: WaGa; assay: XTT assay, ADC-mediated cytotoxicity; format: cell-based; conditions: 4 days, read-out: WaGa n = 3 IC50
Method: as §2

[9] = system: PeTa; assay: XTT assay, ADC-mediated cytotoxicity; format: cell-based; conditions: 4 days, read-out: PeTa n = 3 IC50
Method: as §2

[10] = system: solid tumors expressing CD56; conditions: several phase I studies; in words; cited from earlier work
[11] = system: MKL-1 CRISPR CD56; assay: XTT assay, ADC-mediated cytotoxicity; format: cell-based; conditions: 4 days, CD56− cells, read-out: MKL-1 CRISPR CD56 n = 3 IC50
[12] = system: monocytes; assay: Killing effect on monocytes (Annexin V / 7-AAD flow cytometry); format: cell-based, human; conditions: after 4 h of incubation; in words
Method: as §3
Monocytes were isolated from PBMC by positive selection using anti-CD14 MicroBeads (Miltenyi Biotec) according to manufacturer recommendations. Monocytes were cultured in serum-free X-VIVO-15 medium (Lonza) at 1.10^6 cells/mL.
as §1

[13] = system: WaGa xenograft; assay: Efficacy in vivo, WaGa xenograft, ADC 5 mg/kg twice a week; set-up: species or system NOD/SCID mice; conditions: 5 mg/kg IV twice a week; day 30
Method: Xenograft mice model: eighteen 7-week-old females NOD/SCID (Janvier Labs) mice were maintained under aseptic conditions. All animal procedures were approved by local ethics committee (Apafis #26772-2020072715262737 v2). WaGa cell line was used for tumor induction, as previously described in [9]. Mice received one subcutaneous injection of 1.10^7 WaGa cells with 10% matrigel on the back. General state and weight were monitored twice a week during the procedure. Tumor volume was measured with a caliper and tumor volume was calculated according to the formula: π/6×width×length×height. […] Mice were sacrificed 30 days after inclusion or when reaching one predefined endpoint (tumor ulceration, weight loss >20%, or prostration). Tumors, heart, lungs, spleen, and liver were removed for macroscopic examination. After dissection, tumor weight and volume were assessed. To detect metastatic spread and potential toxicity of ADCs, whole tumors and organs (heart, lungs, spleen, and liver), were formalin-fixed and paraffin embedded for microscopic evaluation to evaluate architecture changes, inflammatory infiltrate, necrosis, vascular changes, fibrosis and liver steatosis.

[14] = system: CD56+ cell lines (WaGa, PeTa, MKL-1, H69, H209, H660); assay: Flow cytometry binding of Alexa Fluor 750 labelled antibodies, CD56+ cell lines; conditions: 4° C., 30 minutes, in words
Method: (§4) Binding levels of L and mAb-003 have been evaluated on several tumor cell lines: MCC (WaGa, PeTa, MKL-1), SCLC (H69, H209) and prostate cancers (H660) as well as WaGa, PeTa and MKL-1 CD56-knocked out using CRISPR technology.
(§5) The L and mAb-003 were labelled with Alexa Fluor 750 (Alexa Fluor 750 Protein Labelling Kit, Invitrogen) to allow their detection by flow cytometry. The labelled antibodies were incubated with 1.10^5 cells at 4° C. for 30 minutes, then cells were washed twice with PBS supplemented with 1% FCS, and the binding was analysed by Flow cytometry on Cytoflex.

[15] = system: CD56− cells (CRISPR WaGa, PeTa, MKL-1); assay: Flow cytometry binding of Alexa Fluor 750 labelled antibodies, CD56- CRISPR cell lines; conditions: 4° C., 30 minutes, in words
Method: as §4, §5

B1: LM: Lorvotuzumab Mertansine, anti-CD56 ADC coupled to mertansine (DM1) (conjugate, chains of the INN, looked up)
VH: QVQLVESGGGVVQPGRSLRLSCAASGFTFSSFGMHWVRQAPGKGLEWVAYISSGSFTIYYADSVKGRFTISRDNSKNTLYLQMNSLRAEDTAVYYCARMRKGYAMDYWGQGTLVTVSS
VL: DVVMTQSPLSLPVTLGQPASISCRSSQIIIHSDGNTYLEWFQQRPGQSPRRLIYKVSNRFSGVPDRFSGSGSGTDFTLKISRVEAEDVGVYYCFQGSHVPHTFGQGTKVEIK
modifications: mertansine (DM1)
In the case of B1, the Survival benefit [1] is listed as “did not demonstrate any survival benefit”, the “Killing effect towards neutrophils” value [2] is listed as “around 15%” and the “Cytotoxicity on CD56− cells” value [3] is listed as “nonspecific cytotoxicity”. The “Killing effect on primary NK cells (ADCC)” value [4] was “ADCC killing effect was observed”, the IC50 [5] was 75.6 nM and the IC50 [6] was 100 nM. The IC50 [7] was 62.6 nM, the IC50 [8] was 75.6 nM and the IC50 [9] was 26.9 nM. For the same molecule, the Tolerance [10] was “acceptable tolerance” and the IC50 [11] was 74.1 nM.

B2: LM-002: Deglycosylated Lorvotuzumab Mertansine: treated with PNGase F to remove the glycosylation (conjugate, chains of the INN, looked up)
VH: QVQLVESGGGVVQPGRSLRLSCAASGFTFSSFGMHWVRQAPGKGLEWVAYISSGSFTIYYADSVKGRFTISRDNSKNTLYLQMNSLRAEDTAVYYCARMRKGYAMDYWGQGTLVTVSS
VL: DVVMTQSPLSLPVTLGQPASISCRSSQIIIHSDGNTYLEWFQQRPGQSPRRLIYKVSNRFSGVPDRFSGSGSGTDFTLKISRVEAEDVGVYYCFQGSHVPHTFGQGTKVEIK
modifications: mertansine; deglycosylated
notes: Deglycosylated Lorvotuzumab Mertansine: treated with PNGase F to remove the glycosylation
For B2, the “Killing effect on monocytes” value [12] was “negligible killing effect”.

B3: L-002: Deglycosylated Lorvotuzumab: treated with PNGase F to remove the glycosylation at Asn297 (antibody, chains of the INN, looked up, V domains shown)
VH: QVQLVESGGGVVQPGRSLRLSCAASGFTFSSFGMHWVRQAPGKGLEWVAYISSGSFTIYYADSVKGRFTISRDNSKNTLYLQMNSLRAEDTAVYYCARMRKGYAMDYWGQGTLVTVSS
VL: DVVMTQSPLSLPVTLGQPASISCRSSQIIIHSDGNTYLEWFQQRPGQSPRRLIYKVSNRFSGVPDRFSGSGSGTDFTLKISRVEAEDVGVYYCFQGSHVPHTFGQGTKVEIK
modifications: deglycosylated with PNGase F
notes: Deglycosylated Lorvotuzumab: treated with PNGase F to remove the glycosylation at Asn297
For B3, the “Killing effect on primary NK cells” value [4] was 20%.

B4: MF-L-MMAE: L conjugated to MMAE with 6-(2,6-bis(bromomethyl)pyridin-4-yl)amido-N-hexanamide-valine-citrulline-p-aminobenzoyl carbamate (conjugate, chains of the INN, looked up)
VH: QVQLVESGGGVVQPGRSLRLSCAASGFTFSSFGMHWVRQAPGKGLEWVAYISSGSFTIYYADSVKGRFTISRDNSKNTLYLQMNSLRAEDTAVYYCARMRKGYAMDYWGQGTLVTVSS
VL: DVVMTQSPLSLPVTLGQPASISCRSSQIIIHSDGNTYLEWFQQRPGQSPRRLIYKVSNRFSGVPDRFSGSGSGTDFTLKISRVEAEDVGVYYCFQGSHVPHTFGQGTKVEIK
modifications: MMAE via val-cit PAB linker
notes: L conjugated to MMAE with 6-(2,6-bis(bromomethyl)pyridin-4-yl)amido-N-hexanamide-valine-citrulline-p-aminobenzoyl carbamate
With B4 the “Mean end tumor weight” value [13] was 0.08 g.

B5: L: Lorvotuzumab (antibody, chains of the INN, looked up, V domains shown)
VH: QVQLVESGGGVVQPGRSLRLSCAASGFTFSSFGMHWVRQAPGKGLEWVAYISSGSFTIYYADSVKGRFTISRDNSKNTLYLQMNSLRAEDTAVYYCARMRKGYAMDYWGQGTLVTVSS
VL: DVVMTQSPLSLPVTLGQPASISCRSSQIIIHSDGNTYLEWFQQRPGQSPRRLIYKVSNRFSGVPDRFSGSGSGTDFTLKISRVEAEDVGVYYCFQGSHVPHTFGQGTKVEIK
For B5, the “Binding to CD56+ cells” value [14] was “lower binding level”, the “Binding to CD56− cells (CRISPR cells)” value [15] was “binding to CD56− cells” and the “Killing effect towards neutrophils” value [2] was “about 15%”. For the same molecule, the “Killing effect on primary NK cells (ADCC)” value [4] was “ADCC killing effect was observed” and the “Killing effect on primary NK cells” value [4] was 40%.
